Measured values from ChEMBL document CHEMBL1250451, “Mechanistic insights into a Ca2+-dependent family of alpha-mannosidases in a human gut symbiont” (Nat Chem Biol, 2010).
Positions count from the first letter of the chain named. Numbers in names are those of the source. The calls are words filed in the database; no cut-off is given here.

What was measured:
Format in all cases: protein assay
[1] = substrate: OC[C@H]1O[C@H](O[C@H]2[C@@H](O)[C@H](O)[C@@H](CO)O[C@@H]2O)[C@@H](O)[C@@H](O)[C@@H]1O; test: (§1) Ratio of Kcat to Km for Bacteroides thetaiotaomicron GH92 alpha-mannosidase 3990 E585A mutant assessed as as mannose release after 16 hrs by HPLC relative to wild type enzyme
[2] = substrate: O=[N+]([O-])c1ccc(O[C@H]2O[C@H](CO)[C@@H](O)[C@H](O)[C@@H]2O)c([N+](=O)[O-])c1; test: as §1
[3] = substrate: O=[N+]([O-])c1ccc(O[C@H]2O[C@H](CO)[C@@H](O)[C@H](O)[C@@H]2O)cc1; test: as §1
[4] = substrate: OC[C@H]1O[C@H](O[C@H]2[C@@H](O)[C@H](O)[C@@H](CO)O[C@@H]2O)[C@@H](O)[C@@H](O)[C@@H]1O; test: (§2) Activity of Bacteroides thetaiotaomicron GH92 alpha-mannosidase 3990 E585A mutant assessed as as mannose release after 16 hrs by HPLC relative to wild type enzyme
[5] = substrate: O=[N+]([O-])c1ccc(O[C@H]2O[C@H](CO)[C@@H](O)[C@H](O)[C@@H]2O)cc1; test: as §2
[6] = substrate: OC[C@H]1O[C@H](O[C@H]2[C@@H](O)[C@H](O)[C@@H](CO)O[C@@H]2O)[C@@H](O)[C@@H](O)[C@@H]1O; test: (§3) Ratio of Kcat to Km for Bacteroides thetaiotaomicron GH92 alpha-mannosidase 3990 S86A mutant assessed as mannose release after 16 hrs by HPLC relative to wild type enzyme
[7] = substrate: O=[N+]([O-])c1ccc(O[C@H]2O[C@H](CO)[C@@H](O)[C@H](O)[C@@H]2O)c([N+](=O)[O-])c1; test: as §3
[8] = substrate: O=[N+]([O-])c1ccc(O[C@H]2O[C@H](CO)[C@@H](O)[C@H](O)[C@@H]2O)cc1; test: as §3
[9] = substrate: OC[C@H]1O[C@H](O[C@H]2[C@@H](O)[C@H](O)[C@@H](CO)O[C@@H]2O)[C@@H](O)[C@@H](O)[C@@H]1O; test: (§4) Activity of Bacteroides thetaiotaomicron GH92 alpha-mannosidase 3990 S86A mutant assessed as mannose release after 16 hrs by HPLC relative to wild type enzyme
[10] = substrate: O=[N+]([O-])c1ccc(O[C@H]2O[C@H](CO)[C@@H](O)[C@H](O)[C@@H]2O)cc1; test: as §4
[11] = substrate: OC[C@H]1O[C@H](O[C@H]2[C@@H](O)[C@H](O)[C@@H](CO)O[C@@H]2O)[C@@H](O)[C@@H](O)[C@@H]1O; test: (§5) Activity of Bacteroides thetaiotaomicron GH92 alpha-mannosidase 3990 E533A mutant assessed as as mannose release after 16 hrs by HPLC relative to wild type enzyme
[12] = substrate: O=[N+]([O-])c1ccc(O[C@H]2O[C@H](CO)[C@@H](O)[C@H](O)[C@@H]2O)cc1; test: as §5
[13] = substrate: OC[C@H]1O[C@H](O[C@H]2[C@@H](O)[C@H](O)[C@@H](CO)O[C@@H]2O)[C@@H](O)[C@@H](O)[C@@H]1O; test: (§6) Ratio of Kcat to Km for Bacteroides thetaiotaomicron GH92 alpha-mannosidase 3990 E533A mutant assessed as as mannose release after 16 hrs by HPLC relative to wild type enzyme
[14] = substrate: O=[N+]([O-])c1ccc(O[C@H]2O[C@H](CO)[C@@H](O)[C@H](O)[C@@H]2O)c([N+](=O)[O-])c1; test: as §6
[15] = substrate: O=[N+]([O-])c1ccc(O[C@H]2O[C@H](CO)[C@@H](O)[C@H](O)[C@@H]2O)cc1; test: as §6
[16] = substrate: OC[C@H]1O[C@H](O[C@H]2[C@@H](O)[C@H](O)[C@@H](CO)O[C@@H]2O)[C@@H](O)[C@@H](O)[C@@H]1O; test: (§7) Activity of Bacteroides thetaiotaomicron GH92 alpha-mannosidase 3990 D642A mutant assessed as as mannose release after 16 hrs by HPLC relative to wild type enzyme
[17] = substrate: O=[N+]([O-])c1ccc(O[C@H]2O[C@H](CO)[C@@H](O)[C@H](O)[C@@H]2O)cc1; test: as §7
[18] = substrate: OC[C@H]1O[C@H](O[C@H]2[C@@H](O)[C@H](O)[C@@H](CO)O[C@@H]2O)[C@@H](O)[C@@H](O)[C@@H]1O; test: (§8) Ratio of Kcat to Km for Bacteroides thetaiotaomicron GH92 alpha-mannosidase 3990 D642A mutant assessed as as mannose release after 16 hrs by HPLC relative to wild type enzyme
[19] = substrate: O=[N+]([O-])c1ccc(O[C@H]2O[C@H](CO)[C@@H](O)[C@H](O)[C@@H]2O)c([N+](=O)[O-])c1; test: as §8
[20] = substrate: O=[N+]([O-])c1ccc(O[C@H]2O[C@H](CO)[C@@H](O)[C@H](O)[C@@H]2O)cc1; test: as §8
[21] = substrate: OC[C@H]1O[C@H](O[C@H]2[C@@H](O)[C@H](O)[C@@H](CO)O[C@@H]2O)[C@@H](O)[C@@H](O)[C@@H]1O; test: (§9) Activity of Bacteroides thetaiotaomicron GH92 alpha-mannosidase 2199 D648A mutant assessed as as mannose release after 16 hrs by HPLC relative to wild type enzyme
[22] = substrate: O=[N+]([O-])c1ccc(O[C@H]2O[C@H](CO)[C@@H](O)[C@H](O)[C@@H]2O)cc1; test: as §9
[23] = substrate: OC[C@H]1O[C@H](O[C@H]2[C@@H](O)[C@H](O)[C@@H](CO)O[C@@H]2O)[C@@H](O)[C@@H](O)[C@@H]1O; test: (§10) Ratio of Kcat to Km for Bacteroides thetaiotaomicron GH92 alpha-mannosidase 2199 D648A mutant assessed as as mannose release after 16 hrs by HPLC relative to wild type enzyme
[24] = substrate: O=[N+]([O-])c1ccc(O[C@H]2O[C@H](CO)[C@@H](O)[C@H](O)[C@@H]2O)cc1; test: as §10
[25] = substrate: OC[C@H]1O[C@H](O[C@H]2[C@@H](O)[C@H](O)[C@@H](CO)O[C@@H]2O)[C@@H](O)[C@@H](O)[C@@H]1O; test: (§11) Activity of Bacteroides thetaiotaomicron GH92 alpha-mannosidase 2199 D648N mutant assessed as as mannose release after 16 hrs by HPLC relative to wild type enzyme
[26] = substrate: O=[N+]([O-])c1ccc(O[C@H]2O[C@H](CO)[C@@H](O)[C@H](O)[C@@H]2O)cc1; test: as §11
[27] = substrate: OC[C@H]1O[C@H](O[C@H]2[C@@H](O)[C@H](O)[C@@H](CO)O[C@@H]2O)[C@@H](O)[C@@H](O)[C@@H]1O; test: (§12) Ratio of Kcat to Km for Bacteroides thetaiotaomicron GH92 alpha-mannosidase 2199 D648N mutant assessed as as mannose release after 16 hrs by HPLC relative to wild type enzyme
[28] = substrate: O=[N+]([O-])c1ccc(O[C@H]2O[C@H](CO)[C@@H](O)[C@H](O)[C@@H]2O)cc1; test: as §12

B1: Alpha-1,2-mannosidase (BT_3990) (Bacteroides thetaiotaomicron), Q8A0N1 E585A (protein)
chain: MKRLLLIACILNCTLLSQAKDWTQYVNPLMGSQSTFELSTGNTYPAIARPWGMNFWTPQTGKMGDGWQYTYTANKIRGFKQTHQPSPWINDYGQFSIMPIVGQPVFDEEKRASWFAHKGEVATPYYYKVYLAEHDIVTEMTPTERAVLFRFTFPENDHSYVVVDAFDKGSYIKIIPEENKIIGYTTRNSGGVPENFKNYFIIEFDKPFTYKATVENGNLQENVAEQTTDHAGAIIGFKTRKGEQVNARIASSFISFEQAAANMNELGKDNIEQLAQKGKDAWNQVLGKIEVEGGNLDQYRTFYSCLYRSLLFPRKFYELDANGQPIHYSPYNGQVLPGYMFTDTGFWDTFRCLFPLLNLMYPSVNKEMQEGLINTYLESGFFPEWASPGHRGCMVGNNSASILVDAYMKGVKVDDIKTLYEGLIHGTENVHPEVSSTGRLGYEYYNKLGYVPYDVKINENAARTLEYAYDDWCIYRLAKELKRPKKEISLFAKRAMNYKNLFDKESKLMRGRNEDGTFQSPFSPLKWGDAFTEGNSWHYTWSVFHDPQGLIDLMGGKEMFVTMMDSVFAVPPIFDDSYYGQVIHAIREMTVMNMGNYAHGNQPIQHMIYLYDYAGQPWKAQYWLRQVMDRMYTPGPDGYCGDEDNGQTSAWYVFSALGFYPVCPGTDEYVMGTPLFKKATLHFENGNSLVIDAPNNSTENFYIDSMSFNGADHTKNYLRHEDLFKGGTIKVDMSNRPNLNRGTKEEDMPYSFSKE
- kcat/Km [1]: 3.17 M⁻¹ s⁻¹
- kcat/Km [2]: 9330 M⁻¹ s⁻¹
- kcat/Km [3]: 5.5 M⁻¹ s⁻¹
- Km [4]: 2300 µM
- kcat [4]: 0.00733 s⁻¹
- Km [5]: Not Active
- kcat [5]: Not Active

B2: Alpha-1,2-mannosidase (BT_3990) (Bacteroides thetaiotaomicron), Q8A0N1 S86A (protein)
chain: B1 chain with S86A, A585E
- kcat/Km [6]: 6330 M⁻¹ s⁻¹
- kcat/Km [7]: 51.7 M⁻¹ s⁻¹
- kcat/Km [8]: 0.783 M⁻¹ s⁻¹
- Km [9]: 3200 µM
- kcat [9]: 2 s⁻¹
- Km [10]: 8500 µM
- kcat [10]: 0.00667 s⁻¹

B3: Alpha-1,2-mannosidase (BT_3990) (Bacteroides thetaiotaomicron), Q8A0N1 E533A (protein)
chain: B1 chain with E533A, A585E
- Km [11]: 1400 µM
- kcat [11]: 0.00433 s⁻¹
- Km [12]: 9300 µM
- kcat [12]: 0.00333 s⁻¹
- kcat/Km [13]: 3 M⁻¹ s⁻¹
- kcat/Km [14]: 6000 M⁻¹ s⁻¹
- kcat/Km [15]: 0.35 M⁻¹ s⁻¹

B4: Alpha-1,2-mannosidase (BT_3990) (Bacteroides thetaiotaomicron), Q8A0N1 D642A (protein)
chain: B1 chain with A585E, D642A
- Km [16]: 690 µM
- kcat [16]: 0.000533 s⁻¹
- Km [17]: Not Active
- kcat [17]: Not Active
- kcat/Km [18]: 0.783 M⁻¹ s⁻¹
- kcat/Km [19]: 0.383 M⁻¹ s⁻¹
- kcat/Km [20]: Not Active

B5: Alpha-1,2-mannosidase (BT_2199) (Bacteroides thetaiotaomicron), Q8A5N9 D648A (protein)
chain: MVTRLFFLSICFPFLLTSCQQSKKTVEFVDYVNPLMGTESTFAFSHGNTYPAVAVPWGMNFWSPQTGENGSGWMYTYTDSLMRGFRQTHQPSPWINDYGTFSIMPLAGELKMSHKERLVPFSHQQEKATPYNYSVTFNNGLQTSLSATSRGAVFEVSFPEKEDQYVVVDAYNGGSSITIEPEKRLVKGATRYNNGGVPDNFANYFMMEFSHPVIEYGTYNGDTLLHHQTDVAADYTCAYLKFDVPAGEKLTIRTASSFISPEQAAINFNREVADADVQLISGKAREQWNNYLGRVEAEGGTDEQLRTFYSCLYRTLLFPREFYEFDSQGNPVYYSPYDGNVHDGYMYTDNGFWDTFRAVHPLFTLLYPEVSERVTQSIINAYNESGFMPEWASPGHRGCMIGNNSVSLLVDAWMKGIQTVDAEKALEAMIHQTQARHAEIASVGRDGFEYYDKLGYVPYPEVPEATAKTLEYAYADWCIARFAESLGKQDIADQYYQKAPNYRNLYYPEHGFMWTKDAKGNWRDRFDATEWGGPFTEGSSWHWTWSVFHDPEGLSELMGGHEPMIARLDSMFVAPNTYNYGTYGFVIHEIAEMVALNMGQYAHGNQPVQHAIYLYDYIGQPWKTQYHLRNVMDKLYNSGSKGYCGDEANGQTSAWYVFSAMGFYPVCPGMPEYAIGSPLFKKVTLHLPEGKNFVVSAADNAADRPYIRKALLNGQEFTRNYLTHDELKQGGELNLSMDSVPNQQRGTQPADFPYSYSK
- Km [21]: 2720 µM
- kcat [21]: 0.000433 s⁻¹
- Km [22]: Not Active
- kcat [22]: Not Active
- kcat/Km [23]: 0.167 M⁻¹ s⁻¹
- kcat/Km [24]: Not Active

B6: Alpha-1,2-mannosidase (BT_2199) (Bacteroides thetaiotaomicron), Q8A5N9 D648N (protein)
chain: B5 chain with A648N
- Km [25]: 1270 µM
- kcat [25]: 0.000483 s⁻¹
- Km [26]: Not Active
- kcat [26]: Not Active
- kcat/Km [27]: 0.383 M⁻¹ s⁻¹
- kcat/Km [28]: Not Active
